Reference: publication PMC8551079
Like-named read-outs stand apart in the source and are kept apart here.

B1: PER57 probe (PER probe) (dsDNA)
DNA 1: GCCTCAACTAATAAGTTGTTATGTGCAA
DNA 2: TTGCACATAACAACTTATTAGTTGAGGC
B2: GPAT5 probe (dsDNA)
DNA 1: AATCATAGTTTTGTTACAAGCGAAATCTGAAA
DNA 2: TTTCAGATTTCGCTTGTAACAAAACTATGATT
B3: GH3.3 probe (dsDNA)
DNA 1: ATCAAGAATTAGTTTTAGTTATCAATAAATAGGA
DNA 2: TCCTATTTATTGATAACTAAAACTAATTCTTGAT

Key:
MYB70 [1] = target: T1, MYB70 (Arabidopsis thaliana, UniProt O22179 1-309); assay: EMSA
MYB70 [2] = target: T1, MYB70; assay: EMSA; remark: listed apart in the source

| Binder | binding result (MYB70 [1]) | binding result (MYB70 [2]) |
| --- | --- | --- |
| B1 | binds |  |
| B2 | binds |  |
| B3 |  | binds |
